# PMC4191399
# Residue numbers refer to the chain shown, from its start.
# Legend:
# [1] = target: T1, RIG-I K788A/R791A K788A;R791A (Homo sapiens) (UniProt O95786); assay: fluorescence polarization; conditions: internal 6-carboxyfluorescein in backbone between U12 and C13 (central tetraloop bases); 25 mM MOPS pH 7.4, 150 mM KCl, 2 mM DTT, 2 mM MgCl2, 0.01% Triton X-100, 1 nM RNA, room temperature, 1 h
# T1 sequence: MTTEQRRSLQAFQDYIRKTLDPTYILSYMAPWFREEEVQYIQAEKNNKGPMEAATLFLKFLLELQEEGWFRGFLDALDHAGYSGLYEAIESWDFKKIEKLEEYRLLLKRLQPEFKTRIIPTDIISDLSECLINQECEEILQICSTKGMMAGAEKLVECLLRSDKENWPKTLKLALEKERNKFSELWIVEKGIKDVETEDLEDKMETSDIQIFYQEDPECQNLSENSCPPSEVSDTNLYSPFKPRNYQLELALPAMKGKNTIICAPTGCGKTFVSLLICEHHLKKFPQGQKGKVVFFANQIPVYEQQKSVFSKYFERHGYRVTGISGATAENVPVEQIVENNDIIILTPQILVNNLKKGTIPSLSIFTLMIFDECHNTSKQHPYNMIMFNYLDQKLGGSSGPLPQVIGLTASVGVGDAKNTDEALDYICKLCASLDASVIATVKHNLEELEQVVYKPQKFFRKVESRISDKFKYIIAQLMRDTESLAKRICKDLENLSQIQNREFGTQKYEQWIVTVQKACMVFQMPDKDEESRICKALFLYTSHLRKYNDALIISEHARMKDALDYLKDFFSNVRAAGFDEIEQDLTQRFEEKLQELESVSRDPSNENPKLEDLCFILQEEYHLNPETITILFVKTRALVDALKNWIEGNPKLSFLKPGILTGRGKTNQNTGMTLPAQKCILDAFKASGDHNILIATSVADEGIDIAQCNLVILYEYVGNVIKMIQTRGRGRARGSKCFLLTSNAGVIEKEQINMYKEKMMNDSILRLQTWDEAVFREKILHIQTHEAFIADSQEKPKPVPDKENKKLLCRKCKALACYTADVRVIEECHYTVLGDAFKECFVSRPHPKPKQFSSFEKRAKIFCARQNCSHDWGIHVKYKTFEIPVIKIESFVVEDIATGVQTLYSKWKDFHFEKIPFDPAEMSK
# [2] = target: T2, RIG-I Q784A/K788A Q784A;K788A (Homo sapiens) (UniProt O95786); assay: fluorescence polarization; conditions: internal 6-carboxyfluorescein in backbone between U12 and C13 (central tetraloop bases); 25 mM MOPS pH 7.4, 150 mM KCl, 2 mM DTT, 2 mM MgCl2, 0.01% Triton X-100, 1 nM RNA, room temperature, 1 h
# T2 sequence: T1 sequence with Q784A, A791R
sequence,measurement,setting,value
GGACGUACGUUUCGACGUACGUCC [5'OH10L-F],Kd,[1],166 nM
same,Kd,[2],85.8 nM
